Measurements as given in the supplement of paper PMC10567573.

B1: NR2F2 (parent)
chain: VAHVESLQEKSQCALEEYVRSQYP
B2: MNAT1 (parent)
chain: LEEALYEYQPLQIETYGPHVPELE

Variants of: B1
Assay: protein stability index of a GFP-peptide fusion (GPS, HEK-293T) (PSI 1-6); higher = more stable
Conditions: c terminus: a fixed tail appended
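Note: lentivirally expressed fusions sorted by FACS into six bins by GFP to DsRed ratio, PSI derived from sequencing read proportions per bin multiplied by bin number.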

Protein stability index of substitutions, site by site:
Y18: E 4.7; F 3.33; G 4.33; H 4.2; I 3.55; K 3.94; L 3.01; M 3.93; N 3.91; P 4.43; R 4.26; S 4.25; T 4.42; V 3.75; W 3.66
V19: A 3.49; C 3.7; D 4.26; E 5.1; F 3.34; G 3.39; H 4.24; I 3.63; K 4.04; L 3.17; M 3.65; N 4.13; P 4.73; Q 4.03; R 3.85; S 4.08; T 3.67; W 3.06; Y 3.56
R20: A 3.49; C 3.87; D 4.71; E 4.51; F 2.71; G 4.17; H 3.86; I 3.36; K 4.18; L 2.67; M 3.19; N 3.14; P 4.16; Q 4.3; S 3.65; T 3.72; V 3.72; W 2.56; Y 3.26
S21: A 3.25; C 3.38; D 3.77; E 3.77; F 2.56; G 3.67; H 3.46; I 3.02; K 3.15; L 3.46; M 3.33; N 3.92; P 4.04; Q 3.53; R 3.13; T 3.95; V 3.34; W 2.24; Y 2.89
Q22: A 3.63; C 3.19; D 4.15; E 4.31; F 2.44; G 3.82; H 3.56; I 2.6; K 3.87; L 3.17; M 2.87; N 3.54; P 3.3; R 3.05; S 3.4; T 3.27; V 3.5; W 2.1; Y 3.34
Y23: A 4.1; C 4.13; D 4.53; E 4.71; F 3.43; G 4.14; H 3.88; I 3.9; K 3.98; L 3.75; M 3.46; N 4.74; P 4.15; Q 4.25; R 4.51; S 4.36; T 4.01; V 3.76; W 2.7
P24: A 3.73; C 3.14; D 4.29; E 3.94; F 2.62; G 3.72; H 3.33; I 3.19; K 3.93; L 3.15; M 3.22; N 3.94; Q 3.35; R 4.01; S 3.47; T 3.5; V 3.06; W 2.45; Y 2.68

Variants of: B2
Assay: as above
Conditions: c terminus: a fixed tail appended

Protein stability index, by site and new letter:
G17: C 1.98; P 2.69; H 3.14; F 2.35; M 1.75; I 2.13; V 2.12; Q 2.53; A 2.35; N 2.99; D 2.21
E14: M 2.47; I 1.81; C 2.12; G 3.31; F 2.01; P 4.22
P21: L 2.79; Q 3.42; S 2.41; T 2.56; R 2.96; H 2.58; I 2.2; N 2.47; V 2.19
Q12: W 2.11; V 2.46; D 3.92; Y 2.01; A 2.33; G 2.75; T 3.19; N 2.65; E 3.67; C 2.14; S 2.21; I 2.5
L23: H 3.29; K 3.59; S 3.48; Y 2.89; F 2.87
Y16: F 3.49; K 4.34; D 5.37; A 4.54; W 2.49; G 4.52; S 4.27; Q 4.33; R 3.19; N 4.7; H 3.15
E2: R 3.28; Q 1.71; A 2.26; D 3.89; I 2.67; N 2.4; V 2.55; L 2.96; S 2.4; H 1.73
A4: S 4.67; W 2.96; H 4.59; L 3.57; P 4.28; C 3.81; I 2.88; R 4.81; N 4.61; V 1.91; E 4.56; T 4.27; K 4.33
E22: S 2.4; F 1.97; N 2.31; K 2.31; W 1.54; M 2.35; D 2.46; G 2.43; V 2.56
P10: R 4.01; M 3.85; H 4.99; S 4.05; V 2.25; Y 3.09; I 2.77
T15: S 3.54; Q 4.09; N 4.13; A 1.99; C 2.18; D 4.73; G 4.13; E 4.43
L5: G 4.8; Y 4.46; A 4.97; E 4.58; P 5.19; T 4.9; H 4.96
L11: C 2.99; Y 3.18; D 4.85; R 4.32; P 5.15; G 5.26; M 3.17; A 4.06; F 4.11; E 4.77
Q9: G 3.46; R 1.88; E 4.38; D 4.67; M 2.74; C 2.6; H 1.87; I 3.56
Y6: K 2.46; H 3.11; P 5.47; T 3.56; M 3
L1: K 4.81; R 4.12; F 3.81; M 3.18; H 4.98; W 4; C 4.72; V 4.15
E3: V 1.74; K 2.64; T 3.16; P 4.05; M 2.19; G 3.41; W 1.45; Y 2.04
Y8: D 5.23; L 4.75; A 5.3; E 5.4; S 5.53; W 3.59; C 4.91; K 5.14; M 4.71; F 3.75
I13: E 5.29; W 3.8; N 5.5; M 4.27; F 4.34; C 4.14; D 5.07; H 5.15; L 4.51; S 4.96; G 5.01; T 4.75; Y 4.41
E24: P 1.93; Q 2.18; A 2.84; M 2.14; N 2.35; W 1.45; V 2.19; Y 1.39; H 2.25
P18: Q 3.3; E 2.15; L 2.16; C 1.91
V20: I 2.4; H 2.1; F 2.36; R 2.58; M 2.57; T 2.38; P 2.21; E 1.94
H19: Q 2.37; A 2.89; N 2.82; S 2.69; T 3.17; K 2.8; D 2.76; L 2.33; Y 2.62
E7: V 1.73; P 2.71; Q 2.28; S 2.76; R 1.73
